Assay: soluble on expression in E. coli; label from the status in PepcDB or PDB records
With “MRIALFTDTYIPQVNGVARTMKRLVDHLEKRQVEYALYMPETIEKLDRFESNIHTFASLPFFLYPECRIALPNVFKLRQQLTSFQPDLLHIATPFNVGLSGLQHGKKYGIPMVGSYHTHFDHYLHYYKLQFMSAWLWKYVKWFHQPFERTFVPSVETMRHLQKHGFQRLALWTRGVDCERFHPKQRHRSYAINLLPKDKAVLLYVGRLAPEKDLATLVAIMSLLPRELNEKIQWMIVGDGPSLPEMKKQCPSNVTFTGYLKGEELAAAYASADLFVFPSATETFGNVVLEAFASGTPAIVADRGGVTEIVEHGKSGMICKAGDAHTFIQAIEHLLMNRSKRAEMGYEARQYALTQSWERIFDDLLEQYEQVIFHHKKRHLALEHHHHHH” the “soluble on expression in E. coli” value was “not soluble”.
In the case of “MSLRNKIKSWLLNASEYDFTDIKEGIRLHLNESPFEPPQFIIDAVKMYLSKGNRYQHPDLLEKYRELAAEYSKVEPENIYPSVGADGSIRAIFYNLVEPGDTILTNYPSYSMYSVYSSVRGTKVIKVNLKEDNEWWKENTDDLLAQAEKVELVIIDDPNNPTGSPMLNGKKELIGQLAENTKGFVVIDEAYYEFGGYTVSPYIYDYPNVLVVRTLSKAFSLASYRLGYTIANEEIVKALMKSSTPFDIPLPSLIAGITALENPSYIKDVVNIVNRNREILYQGLKNLNLKVYKSITNFLLIKDNRNLQEMLMRHGIAIRKLYDNFYRITIGTEDQCKMVIDKLGEELENSNSEGHHHHHH”, the “soluble on expression in E. coli” value is reported as “soluble”.
For “GSTVPYTITVNGTSQNILSNLTFNKNQNISYKDLEGKVKSVLESNRGITDVDLRLSKQAKYTVNFKNGTKKVIDLKSGIYTANLINSSDIKSININID”, the “soluble on expression in E. coli” value was “soluble”.
In the case of “MTRQSLQQAAESRRSIYSLNKNLPVGKDEVVQIVEHAVLHTPSSFNSQSARVVVLFGEEHDKVWQFVEDALRAVVPADSFEPTAQKLNLFKAGAATILFYEDQNVVKGLQEQFPAYAANFPVWADQANAMVQYAVWTTLAAVGVGANLQHYNPLPDAAIAKAWNIPENWLLRAQMVIGGIEGAAGEKTFEPVAERLKVFGA”, the “soluble on expression in E. coli” value is reported as “not soluble”.
In the case of “MKANSDELQSFVSVVDSGSISAAAEQMGLTASAVSRTLSRLEHKLGTTLLNRTTRRMELTEEGRYFLDQARQILQQMEALEERLALRRQSPAGRLRINAASPFMLHAVVPHIGEFRRLYPDIQLELNTNDLIIDLLEQRTDVAIRIGALSDSTLHARPLGASRLHILASPEYLARHGTPASIEGLRGHTLLGFTQPEHLNRWPVVHADGDRLEIQPDISASSGETLRQLALSHQGIACLASFMTDRDIQDGRLVPLFAEQMSEYRQPIHAVYYRNSQLALRIQCFLDFIQQRLGA”, the “soluble on expression in E. coli” value is reported as “not soluble”.
With “GGTKTAAEAAAPAVHPVSGLQIVPVTVTGTSGRHVFRSELARTSAEQAKGLMFRTELGDEEGMIFLRNPPDMATFWMRNTVIPLDIIFVGLDRRVMNIAANAVPYDETPLPAAGPTLAVLEINGGLAARLGIKPGDKVEW” the “soluble on expression in E. coli” value was “soluble”.
In the case of “MGSYSSDDVEVIREAGRAQGLATILAIGTATPPNCVAQADYADYYFRVTKSEHMVDLKEKFKRICEKTAIKKRYLALTEDYLQENPTMCEFMAPSLNARQDLVVTGVPMLGKEAAVKAIDEWGLPKSKITHLIFCTTAGVDMPGADYQLVKLLGLSPSVKRYMLYQQGCAAGGTVLRLAKDLAENNKGSRVLIVCSEITAILFHGPNENHLDSLVAQALFGDGAAALIVGSGPHLAVERPIFEIVSTDQTILPDTEKAMKLHLREGGLTFQLHRDVPLMVAKNIENAAEKALSPLGITDWNSVFWMVHPGGRAILDQVERKLNLKEDKLRASRHVLSEYGNLISACVLFIIDEVRKRSMAEGKSTTGEGLDCGVLFGFGPGMTVETVVLRSVRVTAAVANGN”, the “soluble on expression in E. coli” value is reported as “soluble”.
With “MSYVTTKDGVQIFYKDWGPRDAPVIHFHHGWPLSADDWDAQLLFFLAHGYRVVAHDRRGHGRSSQVWDGHDMDHYADDVAAVVAHLGIQGAVHVGHSTGGGEVVRYMARHPEDKVAKAVLIAAVPPLMVQTPGNPGGLPKSVFDGFQAQVASNRAQFYRDVPAGPFYGYNRPGVEASEGIIGNWWRQGMIGSAKAHYDGIVAFSQTDFTEDLKGIQQPVLVMHGDDDQIVPYENSGVLSAKLLPNGALKTYKGYPHGMPTTHADVINADLLAFIRS” the “soluble on expression in E. coli” value was “soluble”.
With “MAHHHHHHMYGGNFSIPEFILKHEKYEKERLKIKRNKYLKRNIYKDNYSFIYFIFLHNINEHVEITTNNFDLLKGQLEELKKNTNNHIKGIILKNVIKSNNNNYSYFSKLYIPITNIYTCMPDNICSREKNKNPESKPFCDLIVSGYKNQMMNKIYEKFKKLGNQYV” the “soluble on expression in E. coli” value was “not soluble”.
In the case of “MERAPLLELKGIRKRFGELEVLRGVDLALYPGEILALLGPSGCGKTTLLRVVAGLEVPDAGRVFLEGRDITALPPEKRGIGFVFQDYALFPHLTALGNVAFGLKGKDRLARARKALERVGMTLFQDRRPGELSGGQQQRVALARALAPGPKLVLLDEPFSSLDAGLRAATREEVRKVLKETGTAALLVTHDQEEALSFADRLGVMRGGEILQVGTPEEVYLRPKTPFVAQFLGRTNLLPGEGRGRYAETCLGRVPLAEAREGPLLLSLRPEALRLTPPGQGPQGEVVAREFKGHDLTYRVRLHGVQPEREVLVQEGPTCPFKVGDRVGLEVVGEGVALEGTPPAPVRQEA”, the “soluble on expression in E. coli” value is reported as “soluble”.
With “MKDFITEAWLRANHTLSEGAEIHLPADSRLTPSARELLESRHLRIKFIDEQGRLFVDDEQQQPQPVHGLTSSDEHPQACCELCRQPVAKKPDTLTHLSAEKMVAKSDPRLGFRAVLDSTIALAVWLQIELAEPLGCQAIVGLSDEDLHRLSHQPLRYLGHDHLVPEASHGRDAALLNLLRTKVREAETVAAQVFITRSFEVLRPDILQALNRLSSTVYVMMILSVTKQPLTVKQIQQRLGETQ” the “soluble on expression in E. coli” value was “not soluble”.
In the case of “MGSDKIHHHHHHMTSKLAAVSHIEKIALGLRDQAHAVIKNILMMSDIPTQELQHAMKQLSHQGRVALHFHPDRIDNRGLTVVQGLLRDGIYKSQFETHISNGQLSPELGGPRDHWENQLFGNSYSGIKSRPKYGALDLGLCPLGPAPRFGSCYFLTHSQVLSRCTFSYMDSYRLPKEKGTLSCFDAILAALLSESFERCYALGRQPFKPRDIMAHMACEAKSSVAARFELPGLGNLDHYIEAQIHGDVSLADDIGYLVADPSFKGTETEEYFNQLCSDYQINLHWHNGLTLACDKVPTDFRGAAMPVLAKQIAIDEVIDAKTVGAEAARLQKQPSSWSERGSQAKKTQELKLLWHVLVRFGKPREDNFDNH”, the “soluble on expression in E. coli” value is reported as “not soluble”.
With “MGSDKIHHHHHHMATRSATQPVSPQVARLARGLKLGANSMLVTLFGDVVAPRPQALWLGSLIRLAEPFGINDRLVRTATFRLTSDDWLNATRIGRRSYYGLSEAGLQRCLHAGKRIYAGDAPDWDGRWTLALVRGDARATIRQRLKRELLWEGFGAIAPGVYAHPNADANSLGEIIRAAHAQDFVAVMDATSLETFSIRPLQTLMHQTFKLGDVASAWQALLRRFSPVLADAHAMTPADAFFVRTLLLHEYRRVLLRDPNLPEQLLPTDWPGRTARDLCRDMYAALLDASEDYLREVVEVSEGTLANATRLLRRRFAMA” the “soluble on expression in E. coli” value was “not soluble”.
For “MGHHHHHHSHMKDSEKHIEVEVRKFLALKQTPDFHTVIGDTVTGLLERCKAEPSFYPRNCLMQLIQTHVLSYSLCPDLMEIALKKKDVQLLQLCLQQFPDIPESVTCACLKIFLSIGDDSLQETDVNMESVFDYSINSVHDEKMEEQTEILQNGFNPEEDKCNNCDQELNKKPQDETKESTSCPVVQKRAALLNAILHSAYSETFLLPHLKDIPAQHITLFLKYLYFLYLKCSENATMTLPGIHPPTLNQIMDWICLLLDANFTVVVMMPEAKRLLINLYKLVKSQISVYSELNKIEVSFRELQKLNQEKNNRGLYSIEVLELF”, the “soluble on expression in E. coli” value was “not soluble”.
In the case of “MGSDKIHHHHHHMEKQEIIEKLVELKDRLIEDVYQAYSRNTSDYGHERYNAWKKSVTKFLNQYIPNEVQRFNEKANPTYGVFLRRNGMSYHDFFWKTDGSAMNAYLESLILDIQNDDYDFTPINKEVQDVKTIPEAKSKKVLIVHGHDEAAKYRTEAFLRKHGFDPIILHLNASKGDTIIKKLERLAEGVGYGIVLYTPDDMGETKVKAVQHELQPRARQNVVFEHGYLMGLIGRPNVAAIVEGYVEKPSDIDGVVYIPSSNWEIDLLRELHEAGYPINPANL”, the “soluble on expression in E. coli” value is reported as “not soluble”.
For “MGSDKIHHHHHHMKRPGFIERHHLWTEIQKEASEKIKTIVKEQDLLLIRTAWSDQHGIVRSKSLLPQAFFSALENGMQISTGTFLLDTGGAIVFNPFVPGGSLDMPLMTGAPNLVAVPDPDTFKIVPWAKRTGFILCDEYFQNGQPMPFSSRGILRQSLIDLHQRGLEHIVGLEVEWYLAKLEDPMLAIANVGSSGKPGEPAKVSAVDHSFQYLLESHNPEIQDLLGLLAENLVEMKLPLRSVENEGGVGQFEFTFDPIPALQAADTMMIFRMATKQICRQQGYIASFMCRPGLQGSSSNGWHLHQSLVDLTTGENAFMSANSQTLTSDLAKHFVGGLLKHANAASVFTTPTINGYKRFRPYSLAPDRAGWGLENRGAMIRLQGGFDDPSTHIENRVGEPAANPYLYMASQLISGLDGVDCKLDPGSPTEEPYTTENPILPKSLSEAISYLSQSELFPQKMGQQFINFIIKMKESEINRFLQSVADQPPEEYLKQVTNWEQREYFELF”, the “soluble on expression in E. coli” value was “not soluble”.
For “MGSDKIHHHHHHMSRTQEKHNRSVSKDVLVVGGGTSGFVAAIAAARNGASVLLLEQRDHLGGTHSGGMVMMIRSMRHMKAPANMEQKKIMMTGYESSFDDEQVVRSIVQEYINRMLEIGSAWGRKDEATARQMFDPEIAKWVIQDMVAEAGVEVWLNTQATDVIMEGNALKGVVIESLRDRVEVHAGITIDTTGDGDIAAAAGAAFEFGSPEDGKCQPASLYFAVGGVQLDKTIAYMRDHANEFGEEYVKTMVGLKEQNKPITMFPFKEKIREALKNGDYPIPYGVETVNPDTLSYIVRPMFRNGKFRYDVTYHNMDMAYNFDATDRVELTKATLAMRDLANKMAKFYRKYVPGYEDSYLSYTAQSVGIRDSRRIVCDYTLTREDVLAGQVFPDGIGRYGSLMDVHDKSGKKSLSLVEVGGHGWFHVPFRSLLPKGIENLMVAGRCISADYDAQGSVRSQAASMVTGQATGTAAALAVQQKRKLRELDVSALQEVLKAQNQVI”, the “soluble on expression in E. coli” value was “not soluble”.
In the case of “MNLEKLEVSHDADSLCVVIEISKHSNIKYELDKESGALMVDRVLYGAQNYPANYGFVPNTLGSDGDPVDALVLSDVAFQAGSVVKARLVGVLNMEDESGMDEKLIALPIDKIDPTHSYVKDIDDLSKHTLDKIKHFFETYKDLEPNKWVKVKGFENKESAIKVLEKAIKAYQG”, the “soluble on expression in E. coli” value is reported as “soluble”.
In the case of “MRELQADFVKPARIDILLDMPPASRDLQLKHSWNSEDRSLNIFVKEDDKLTFHRHPVAQSTDCIRGKVGLTKGLHIWEIYWPTRQRGTHAVVGVCTADAPLHSVGYQSLVGSTEQSWGWDLGRNKLYHDSKNCAGVTYPAILKNDEAFLVPDKFLVALDMDEGTLSFIVDQQYLGIAFRGLRGKKLYPIVSAVWGHCEITMRYIGGLDPEPLPLMDLCRRTIRQKI”, the “soluble on expression in E. coli” value is reported as “soluble”.
In the case of “MFYKFLLFDLDHTLLDFDAAEDVALTQLLKEEGVADIQAYKDYYVPMNKALWKDLELKKISKQELVNTRFSRLFAHFGQEKDGSFLAQRYQFYLAQQGQTLSGAHDLLDSLIERDYNLYAATNGITAIQTGRLAQSGLAPYFNQVFISEQLQTQKPDALFYEKIGQQIAGFSKEKTLMIGDSLTADIQGGNNAGIDTIWYNPHHLENHTQAQPTYEVYSYQDLLDCLDKNILEKITF”, the “soluble on expression in E. coli” value is reported as “not soluble”.

— the DeepSol protein solubility set
